From paper PMC3272004 come the findings set out here.

Assay [1] has as its target GST-tagged histone H4 tail (UniProt P02309). The assay is described as follows: pull-down; GST-H3 tail or GST-H4 tail immobilised on glutathione beads; in vitro translated [35S]-Gro variants; overnight at 4°C in HEMNK buffer (40 mM HEPES pH 7.5, 5 mM MgCl2, 0.2 mM EDTA, 1 mM DTT, 0.5% NP-40, 0.1 M KCl); autoradiography.
Assay [2] deals with GST-tagged histone H3 tail (UniProt P61830). The description is as above.

Take “Gro^ΔCR, Gro deletion variant lacking the entire central region (GP, CcN and SP domains), untagged (from UniProt P16371 1-730) (natural protein)”: the fold reduction of binding against Gro^WT in assay [1] and in assay [2] was greater than 4 fold throughout.
